Test results: publication PMC9160250, “Nuclear Vav3 is required for polycomb repression complex-1 activity in B-cell lymphoblastic leukemogenesis” (Nature Communications, 2022)

Molecular target: T1, Bmi1 (mouse (endogenous in Ba/F3 cells and …, UniProt P25916 1-324))
T1 construct: Bmi1, mouse, endogenous protein of Ba/F3 cells and of primary murine B-cell progenitors; also called PCGF4; source: endogenous, Ba/F3 cells (cytoplasmic and nuclear fractions; fixed cells) and murine B-cell progenitors (fixed cells)
T1 sequence (looked up): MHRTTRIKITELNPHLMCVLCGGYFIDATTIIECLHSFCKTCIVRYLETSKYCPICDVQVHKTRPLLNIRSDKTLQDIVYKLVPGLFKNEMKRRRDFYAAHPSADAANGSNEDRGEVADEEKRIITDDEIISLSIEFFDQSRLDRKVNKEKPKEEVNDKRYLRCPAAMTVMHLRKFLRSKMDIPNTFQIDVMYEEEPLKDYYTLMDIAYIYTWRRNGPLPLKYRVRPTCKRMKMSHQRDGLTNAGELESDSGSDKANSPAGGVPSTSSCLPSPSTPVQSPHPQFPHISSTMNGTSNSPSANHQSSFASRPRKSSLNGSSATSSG
Assay: proximity ligation; Duolink PLA in fixed, permeabilised primary murine B-cell progenitors on fibronectin-coated slides (empty vector or p190-BCR-ABL transduced; WT, Rac2-/-, or Vav3-/- transduced with empty vector, Vav3 FL or Vav3 N369A); confocal microscopy
Details: partners not purified

B1: Vav3 NA (N369A mutant which loses the GEF activity) (natural protein, UniProt Q9R0C8 1-847, looked up)
chain: MEPWKQCAQWLIHSKVLPPNHRVTWDSAQVFDLAQTLRDGVLLCQLLNNLRPHSINLKEINLRPQMSQFLCLKNIRTFLAACCDTFGMRKSELFEAFDLFDVRDFGKVIETLSRLSRTPIALATGIRPFPTEESINDEDIYKGLPDLIDETRVEDEEDLYDCVYGEDEGGEVYEDLMKAEEAQQPKSQENDIRSCCLAEIRQTEEKYTETLESIEKYFMAPLKRFLTAAEFDSVFINIPDLVKVHRSLMQEIHDSIVNKDDQNLYQVFINYKERLVIYGQYCSGVESAISNLDYISKTKEDVKLKLEECSKRANNGKFTLRDLLVVPMQRVLKYHLLLQELVKHTHDPMEKANLKLALDAMKDLAQYVAEVKRDNETLREIKQFQLSIENLNQPVLLFGRPQGDGEIRITTLDKHTKQERHIFLFDLAVIVCKRKGDNYEMKEIIDLQQYKIANNPTTDKENKKWSYGFYLIHTQGQNGLEFYCKTKDLKKKWLEQFEMALSNIRPDYADSNFHDFKMHTFTRVTSCRVCQMLLRGTFYQGYLCFKCGAKAHKECLGRVDNCGRVNSVEQGPFKPPEKRTNGLRRASRQVDPGLPKMQVIRNYTGTPAPGLHEGPPLHIQAGDTVELLRGDAHSVFWQGRNLASGEVGFFPSDAVKPSPCVPKPVDYSCQPWYAGPMERLQAETELINRVNSTYLVRHRTKESGEYAISIKYNNEAKHIKILTRDGFFHIAENRKFKSLMELVEYYKHHSLKEGFRTLDTTLQFPYKEPEQPAGQRGNRTGNSLLSPKVLGIAIARYDFCARDMRELSLLKGDMVKIYTKMSANGWWRGEVNGRVGWFPSTYVEEDE
notes: Vav3 with N369A; also called Vav3(N369A); Vav3N369A; source: lentiviral vector pCDH-EF1-MCS-IRES-GFP, transduced Vav3-/- leukemic murine B-cell progenitors (fixed cells)
- fold reduction of the PLA signal against full-length Vav3: ~2 fold
